Test results as given in US20250129163A1.

Target: FcγRIIIa-bio (UniProt P08637)
Experiment: BLI (Fortebio), FcγRIIIa-bio immobilized on SA sensor, antibody 31.3-500 nM, 1:1 fit

Sequence of UniProt P08637 (P08637 17-208 limits assumed): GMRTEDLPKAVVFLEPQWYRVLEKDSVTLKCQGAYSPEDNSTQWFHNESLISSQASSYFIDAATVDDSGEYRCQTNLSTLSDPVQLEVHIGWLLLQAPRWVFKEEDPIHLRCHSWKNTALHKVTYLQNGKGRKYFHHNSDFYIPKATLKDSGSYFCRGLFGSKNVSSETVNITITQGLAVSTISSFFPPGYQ

Kd: 141 nM | koff: 0.0342 s⁻¹ | kon: 243000 M⁻¹ s⁻¹
Substance: MEDI9447 (Oleclumab) (antibody)
